We go through 14 molecules from patent US20120034160A1 (AbbVie / Abbott, published 2012).

Bounds are passed on as bounds.

One assay deals with Recombinant Human IL-1β (human, UniProt P01584 117-269). Kind of assay: cell-based or functional assay.
The next assay addresses T1, Recombinant Human IL-17 (human, UniProt Q16552 20-155, limits assumed).
T1 sequence (looked up): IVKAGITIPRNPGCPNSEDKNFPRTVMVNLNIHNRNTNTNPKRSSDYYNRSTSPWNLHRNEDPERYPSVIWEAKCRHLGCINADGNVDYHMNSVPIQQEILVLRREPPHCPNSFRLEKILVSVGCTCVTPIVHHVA
Kind of assay: cell-based or functional assay.

B1: DVD1277 (bispecific antibody, human IgG1, kappa)
heavy: not shown
light: EIVLTQSPDFQSVTPKEKVTITCRASQDIGSELHWYQQKPDQPPKLLIKYASHSTSGVPSRFSGSGSGTDFTLTINGLEAEDAGTYYCHQTDSLPYTFGPGTKVDIKRTVAAPDTQVTQSPSSLSASVGDRVTITCITSTDIDVDMNWYQQKPGKPPKLLISQGNTLRPGVPSRFSSSGSGTDFTFTISSLQPEDFATYYCLQSDNLPLTFGQGTKLEIKRTVAAPSVFIFPPSDEQLKSGTASVVCLLNNFYPREAKVQWKVDNALQSGNSQESVTEQDSKDSTYSLSSTLTLSKADYEKHKVYACEVTHQGLSSPVTKSFNRGEC
Turning to B1, the “C-Terminal VD IL-1β Neutralization Assay EC50” value in the assay with Recombinant Human IL-1β was above 20 nM. The “N-terminal VD IL-17 Neutralization Assay EC50” value with Recombinant Human IL-17 turned out to be 0.0092 nM.

B2: DVD1281 (bispecific antibody, human IgG1, kappa)
heavy: not shown
light: EIVLTQSPDFQSVTPKEKVTITCRASQDIGSELHWYQQKPDQPPKLLIKYASHSTSGVPSRFSGSGSGTDFTLTINGLEAEDAGTYYCHQTDSLPYTFGPGTKVDIKRTVAAPETTVTQSPSSLSASVGDRVTITCITSTDIDVDMNWYQQKPGKPPKLLISQGNTLRPGVPSRFSSSGSGTDFTFTISSLQPEDFATYYCLQSDNLPLTFGQGTKLEIKRTVAAPSVFIFPPSDEQLKSGTASVVCLLNNFYPREAKVQWKVDNALQSGNSQESVTEQDSKDSTYSLSSTLTLSKADYEKHKVYACEVTHQGLSSPVTKSFNRGEC
For the molecule B2, in the assay with Recombinant Human IL-1β, the “C-Terminal VD IL-1β Neutralization Assay EC50” value was above 150 nM. The “N-terminal VD IL-17 Neutralization Assay EC50” value with Recombinant Human IL-17 is 0.0027 nM.

B3: DVD1279 (bispecific antibody, human IgG1, kappa)
heavy: not shown
light: EIVLTQSPDFQSVTPKEKVTITCRASQDIGSELHWYQQKPDQPPKLLIKYASHSTSGVPSRFSGSGSGTDFTLTINGLEAEDAGTYYCHQTDSLPYTFGPGTKVDIKRTVAAPDTVVTQSPAFLSVTPGEKVTITCITSTDIDVDMNWYQQKPDQPPKLLISQGNTLRPGVPSRFSSSGSGTDFTFTISSLEAEDAATYYCLQSDNLPLTFGQGTKLEIKRTVAAPSVFIFPPSDEQLKSGTASVVCLLNNFYPREAKVQWKVDNALQSGNSQESVTEQDSKDSTYSLSSTLTLSKADYEKHKVYACEVTHQGLSSPVTKSFNRGEC
In the case of B3, the “C-Terminal VD IL-1β Neutralization Assay EC50” value with Recombinant Human IL-1β was above 200 nM. The “N-terminal VD IL-17 Neutralization Assay EC50” value with Recombinant Human IL-17 was 0.0052 nM.

B4: DVD1272 (bispecific antibody, human IgG1, kappa)
heavy: not shown
light: DIQMTQSPSSLSASVGDRVTITCRASGNIHNYLTWYQQTPGKAPKLLIYNAKTLADGVPSRFSGSGSGTDYTFTISSLQPEDIATYYCQHFWSIPYTFGQGTKLQITRTVAAPEIVLTQSPDFQSVTPKEKVTITCRASQDIGSELHWYQQKPDQPPKLLIKYASHSTSGVPSRFSGSGSGTDFTLTINGLEAEDAGTYYCHQTDSLPYTFGPGTKVDIKRTVAAPSVFIFPPSDEQLKSGTASVVCLLNNFYPREAKVQWKVDNALQSGNSQESVTEQDSKDSTYSLSSTLTLSKADYEKHKVYACEVTHQGLSSPVTKSFNRGEC
Regarding B4, the “N-Terminal VD IL-1β Neutralization Assay EC50” value in the assay with Recombinant Human IL-1β was determined as 0.0139 nM. Besides, the “C-terminal VD IL-17 Neutralization Assay EC50” value with Recombinant Human IL-17 came to 0.346 nM.

B5: DVD1274 (bispecific antibody, human IgG1, kappa)
heavy: not shown
light: DIQMTQSPSSLSASVGDRVTITCRASGNIHNYLTWYQQTPGKAPKLLIYNAKTLADGVPSRFSGSGSGTDYTFTISSLQPEDIATYYCQHFWSIPYTFGQGTKLQITRTVAAPEIVLTQSPDFQSVTPKEKVTITCRASQDIGSELHWYQQKPDQPPKLLIKYASHSTSGVPSRFSGSGSGTDFTLTINGLEAEDAGTYYCHQTDSLPYTFGPGTKVDIKRTVAAPSVFIFPPSDEQLKSGTASVVCLLNNFYPREAKVQWKVDNALQSGNSQESVTEQDSKDSTYSLSSTLTLSKADYEKHKVYACEVTHQGLSSPVTKSFNRGEC
In the case of B5, the “N-Terminal VD IL-1β Neutralization Assay EC50” value with Recombinant Human IL-1β worked out at 0.0068 nM. Moreover, the “C-terminal VD IL-17 Neutralization Assay EC50” value in the assay with Recombinant Human IL-17 amounted to 1.08 nM.

B6: DVD1284 (bispecific antibody, human IgG1, kappa)
heavy: not shown
light: DIQMTQSPSSLSASVGDRVTITCRASGNIHNYLTWYQQTPGKAPKLLIYNAKTLADGVPSRFSGSGSGTDYTFTISSLQPEDIATYYCQHFWSIPYTFGQGTKLQITRTVAAPEIVLTQSPDFQSVTPKEKVTITCRASQNIGSELHWYQQKPDQSPKLLIKYASHSISGVPSRFSGSGSGTDFTLTINGLEAEDAATYYCHQSDTLPHTFGQGTKVDIKRTVAAPSVFIFPPSDEQLKSGTASVVCLLNNFYPREAKVQWKVDNALQSGNSQESVTEQDSKDSTYSLSSTLTLSKADYEKHKVYACEVTHQGLSSPVTKSFNRGEC
Consider B6, for which the “N-Terminal VD IL-1β Neutralization Assay EC50” value with Recombinant Human IL-1β came to 0.0065 nM. Besides, in the assay with Recombinant Human IL-17, the “C-terminal VD IL-17 Neutralization Assay EC50” value is above 20 nM.

B7: DVD1282 (bispecific antibody, human IgG1, kappa)
heavy: not shown
light: DIQMTQSPSSLSASVGDRVTITCRASGNIHNYLTWYQQTPGKAPKLLIYNAKTLADGVPSRFSGSGSGTDYTFTISSLQPEDIATYYCQHFWSIPYTFGQGTKLQITRTVAAPEIVLTQSPDFQSVTPKEKVTITCRASQNIGSELHWYQQKPDQSPKLLIKYASHSISGVPSRFSGSGSGTDFTLTINGLEAEDAATYYCHQSDTLPHTFGQGTKVDIKRTVAAPSVFIFPPSDEQLKSGTASVVCLLNNFYPREAKVQWKVDNALQSGNSQESVTEQDSKDSTYSLSSTLTLSKADYEKHKVYACEVTHQGLSSPVTKSFNRGEC
Take B7: the “N-Terminal VD IL-1β Neutralization Assay EC50” value with Recombinant Human IL-1β amounted to 0.0091 nM. For the same molecule, the “C-terminal VD IL-17 Neutralization Assay EC50” value with Recombinant Human IL-17 was above 20 nM.

B8: DVD1273 (bispecific antibody, human IgG1, kappa)
heavy: not shown
light: EIVLTQSPDFQSVTPKEKVTITCRASQDIGSELHWYQQKPDQPPKLLIKYASHSTSGVPSRFSGSGSGTDFTLTINGLEAEDAGTYYCHQTDSLPYTFGPGTKVDIKRTVAAPDIQMTQSPSSLSASVGDRVTITCRASGNIHNYLTWYQQTPGKAPKLLIYNAKTLADGVPSRFSGSGSGTDYTFTISSLQPEDIATYYCQHFWSIPYTFGQGTKLQITRTVAAPSVFIFPPSDEQLKSGTASVVCLLNNFYPREAKVQWKVDNALQSGNSQESVTEQDSKDSTYSLSSTLTLSKADYEKHKVYACEVTHQGLSSPVTKSFNRGEC
As to B8, the “C-Terminal VD IL-1β Neutralization Assay EC50” value in the assay with Recombinant Human IL-1β is 18.4 nM. For the same molecule, the “N-terminal VD IL-17 Neutralization Assay EC50” value in the assay with Recombinant Human IL-17 is 0.0013 nM.

B9: DVD1275 (bispecific antibody, human IgG1, kappa)
heavy: not shown
light: EIVLTQSPDFQSVTPKEKVTITCRASQDIGSELHWYQQKPDQPPKLLIKYASHSTSGVPSRFSGSGSGTDFTLTINGLEAEDAGTYYCHQTDSLPYTFGPGTKVDIKRTVAAPDIQMTQSPSSLSASVGDRVTITCRASGNIHNYLTWYQQTPGKAPKLLIYNAKTLADGVPSRFSGSGSGTDYTFTISSLQPEDIATYYCQHFWSIPYTFGQGTKLQITRTVAAPSVFIFPPSDEQLKSGTASVVCLLNNFYPREAKVQWKVDNALQSGNSQESVTEQDSKDSTYSLSSTLTLSKADYEKHKVYACEVTHQGLSSPVTKSFNRGEC
As to B9, in the assay with Recombinant Human IL-1β, the “C-Terminal VD IL-1β Neutralization Assay EC50” value was 1.92 nM. The “N-terminal VD IL-17 Neutralization Assay EC50” value in the assay with Recombinant Human IL-17 was 0.0006 nM.

B10: DVD1283 (bispecific antibody, human IgG1, kappa)
heavy: not shown
light: EIVLTQSPDFQSVTPKEKVTITCRASQNIGSELHWYQQKPDQSPKLLIKYASHSISGVPSRFSGSGSGTDFTLTINGLEAEDAATYYCHQSDTLPHTFGQGTKVDIKRTVAAPDIQMTQSPSSLSASVGDRVTITCRASGNIHNYLTWYQQTPGKAPKLLIYNAKTLADGVPSRFSGSGSGTDYTFTISSLQPEDIATYYCQHFWSIPYTFGQGTKLQITRTVAAPSVFIFPPSDEQLKSGTASVVCLLNNFYPREAKVQWKVDNALQSGNSQESVTEQDSKDSTYSLSSTLTLSKADYEKHKVYACEVTHQGLSSPVTKSFNRGEC
For the molecule B10, in the assay with Recombinant Human IL-1β, the “C-Terminal VD IL-1β Neutralization Assay EC50” value came to 7.61 nM. Moreover, the “N-terminal VD IL-17 Neutralization Assay EC50” value with Recombinant Human IL-17 is 0.0238 nM.

B11: DVD1285 (bispecific antibody, human IgG1, kappa)
heavy: not shown
light: EIVLTQSPDFQSVTPKEKVTITCRASQNIGSELHWYQQKPDQSPKLLIKYASHSISGVPSRFSGSGSGTDFTLTINGLEAEDAATYYCHQSDTLPHTFGQGTKVDIKRTVAAPDIQMTQSPSSLSASVGDRVTITCRASGNIHNYLTWYQQTPGKAPKLLIYNAKTLADGVPSRFSGSGSGTDYTFTISSLQPEDIATYYCQHFWSIPYTFGQGTKLQITRTVAAPSVFIFPPSDEQLKSGTASVVCLLNNFYPREAKVQWKVDNALQSGNSQESVTEQDSKDSTYSLSSTLTLSKADYEKHKVYACEVTHQGLSSPVTKSFNRGEC
Turning to B11, the “C-Terminal VD IL-1β Neutralization Assay EC50” value with Recombinant Human IL-1β amounted to 1.27 nM. Besides, in the assay with Recombinant Human IL-17, the “N-terminal VD IL-17 Neutralization Assay EC50” value was found to be 0.0021 nM.

B12: DVD1278 (bispecific antibody, human IgG1, kappa)
heavy: not shown
light: DTVVTQSPAFLSVTPGEKVTITCITSTDIDVDMNWYQQKPDQPPKLLISQGNTLRPGVPSRFSSSGSGTDFTFTISSLEAEDAATYYCLQSDNLPLTFGQGTKLEIKRTVAAPEIVLTQSPDFQSVTPKEKVTITCRASQDIGSELHWYQQKPDQPPKLLIKYASHSTSGVPSRFSGSGSGTDFTLTINGLEAEDAGTYYCHQTDSLPYTFGPGTKVDIKRTVAAPSVFIFPPSDEQLKSGTASVVCLLNNFYPREAKVQWKVDNALQSGNSQESVTEQDSKDSTYSLSSTLTLSKADYEKHKVYACEVTHQGLSSPVTKSFNRGEC
For the molecule B12, the “N-Terminal VD IL-1β Neutralization Assay EC50” value in the assay with Recombinant Human IL-1β is 0.145 nM. Moreover, the “C-terminal VD IL-17 Neutralization Assay EC50” value with Recombinant Human IL-17 is 0.346 nM.

B13: DVD1276 (bispecific antibody, human IgG1, kappa)
heavy: not shown
light: DTQVTQSPSSLSASVGDRVTITCITSTDIDVDMNWYQQKPGKPPKLLISQGNTLRPGVPSRFSSSGSGTDFTFTISSLQPEDFATYYCLQSDNLPLTFGQGTKLEIKRTVAAPEIVLTQSPDFQSVTPKEKVTITCRASQDIGSELHWYQQKPDQPPKLLIKYASHSTSGVPSRFSGSGSGTDFTLTINGLEAEDAGTYYCHQTDSLPYTFGPGTKVDIKRTVAAPSVFIFPPSDEQLKSGTASVVCLLNNFYPREAKVQWKVDNALQSGNSQESVTEQDSKDSTYSLSSTLTLSKADYEKHKVYACEVTHQGLSSPVTKSFNRGEC
In the case of B13, in the assay with Recombinant Human IL-1β, the “N-Terminal VD IL-1β Neutralization Assay EC50” value worked out at 0.168 nM. Further, in the assay with Recombinant Human IL-17, the “C-terminal VD IL-17 Neutralization Assay EC50” value is 1.21 nM.

B14: DVD1280 (bispecific antibody, human IgG1, kappa)
heavy: not shown
light: ETTVTQSPSSLSASVGDRVTITCITSTDIDVDMNWYQQKPGKPPKLLISQGNTLRPGVPSRFSSSGSGTDFTFTISSLQPEDFATYYCLQSDNLPLTFGQGTKLEIKRTVAAPEIVLTQSPDFQSVTPKEKVTITCRASQDIGSELHWYQQKPDQPPKLLIKYASHSTSGVPSRFSGSGSGTDFTLTINGLEAEDAGTYYCHQTDSLPYTFGPGTKVDIKRTVAAPSVFIFPPSDEQLKSGTASVVCLLNNFYPREAKVQWKVDNALQSGNSQESVTEQDSKDSTYSLSSTLTLSKADYEKHKVYACEVTHQGLSSPVTKSFNRGEC
As to B14, the “N-Terminal VD IL-1β Neutralization Assay EC50” value in the assay with Recombinant Human IL-1β came to 0.149 nM. The “C-terminal VD IL-17 Neutralization Assay EC50” value in the assay with Recombinant Human IL-17 came to 0.256 nM.
